We go through two molecules from US6344546 (RHONE POULENC RORER, dated 2002).

One may read the Kd as the free concentration of one partner at which half of the binding sites on the other are occupied at equilibrium, for simple one-to-one binding.

The target of assay [1] is T1, human bek (bacterially expressed kinase) fibroblast growth factor receptor (human, UniProt P21802 22-821).
T1 construct: whole, on cells; Three-Ig-domain form, 135 kDa glycoprotein on transfected NIH 3T3 cells; Clone Nbek8 was used with aFGF and bFGF, clone NBek13 with kFGF; also called bek8; NBek8
Briefly: Scatchard analysis of saturation binding, additional experiments. How it is done: (§1) Fibronectin-coated 24 well dishes containing 1×10^5 cells/well were placed on ice, and the wells were rinsed twice with cold binding buffer (DMEM, 1 mg/ml BSA, 5 U/ml heparin, 50 mM Hepes, pH 7.4). […] Nonspecific binding was obtained using the same serial dilutions but in the presence of 100 fold molar excess of non-radioactive aFGF. After incubation, the cells were placed on ice and rinsed twice with ice cold binding buffer minus heparin and then solubilized in 0.3N NaOH 37° C., 15 minutes.
(§2) Equilibrium Binding Analysis of flg and bek Radioloabled with Acidic, Basic and k-fibroblast Growth Factors Acidic and basic FGF were radioiodinated and purified on heparin-Sepharose as described above. The dissociation constants of bek and flg for aFGF and bFGF were established by saturation binding analysis of the overexpressing cell lines with the iodinated ligands. Binding of both aFGF and bFGF to bek and flg was specific and saturable (FIG. 6A, inserts).

For assay [2], the target named is T1, human bek (bacterially expressed …). Briefly: saturation binding of [125I]aFGF to bek8 cells with excess unlabelled aFGF or bFGF. How it is done: (§3) The background counts in the presence of a 100 fold molar excess of either ligand was always less than 10% of the total cpm at each point. The scale on the Scatchard analysis is the same in each panel.
as §1
(§4) Equilibrium Binding Analysis of flg and bek Radioloabled with Acidic, Basic and k-fibroblast Growth Factors Acidic and basic FGF were radioiodinated and purified on heparin-Sepharose as described above. The dissociation constants of bek and flg for aFGF and bFGF were established by saturation binding analysis of the overexpressing cell lines with the iodinated ligands. Binding of both aFGF and bFGF to bek and flg was specific and saturable (FIG. 6A, inserts). […] Scatchard, (*Ann. N.Y. Acad.

The target in assay [3] is T2, human flg (fms-like gene) fibroblast growth factor receptor (human, UniProt P11362 22-822).
T2 construct: whole, on cells; Three-Ig-domain form, 150 kDa glycoprotein on transfected NIH 3T3 cells; also called flg26; NFlg26
Briefly: Scatchard analysis of [125I]aFGF saturation binding to flg overexpressing NIH 3T3 cells. How it is done:
The scale on the Scatchard analysis is the same in each panel.
as §1, §2

The target in assay [4] is T1, human bek (bacterially expressed …). Briefly: Scatchard analysis of [125I]aFGF saturation binding to bek overexpressing NIH 3T3 cells. How it is done:
as §3, §1, §4

Assay [5] deals with T2, human flg (fms-like gene) fibroblast …. The assay can be described thus: saturation binding of [125I]aFGF to flg26 cells with excess unlabelled aFGF or bFGF. As to the method:
as §3, §1, §4

Assay [6] concerns the target T1, human bek (bacterially expressed …). The assay can be described thus: Scatchard analysis of [125I]kFGF saturation binding to bek13 cells.
The target of assay [7] is T2, human flg (fms-like gene) fibroblast …. Briefly: Scatchard analysis of saturation binding to flg overexpressing cells, kFGF against bFGF. As to the method:
as §1, §2

Assay [8] has the same target. Briefly: Scatchard analysis of [125I]kFGF saturation binding to flg26 cells.

T2 sequence (P11362 22-822): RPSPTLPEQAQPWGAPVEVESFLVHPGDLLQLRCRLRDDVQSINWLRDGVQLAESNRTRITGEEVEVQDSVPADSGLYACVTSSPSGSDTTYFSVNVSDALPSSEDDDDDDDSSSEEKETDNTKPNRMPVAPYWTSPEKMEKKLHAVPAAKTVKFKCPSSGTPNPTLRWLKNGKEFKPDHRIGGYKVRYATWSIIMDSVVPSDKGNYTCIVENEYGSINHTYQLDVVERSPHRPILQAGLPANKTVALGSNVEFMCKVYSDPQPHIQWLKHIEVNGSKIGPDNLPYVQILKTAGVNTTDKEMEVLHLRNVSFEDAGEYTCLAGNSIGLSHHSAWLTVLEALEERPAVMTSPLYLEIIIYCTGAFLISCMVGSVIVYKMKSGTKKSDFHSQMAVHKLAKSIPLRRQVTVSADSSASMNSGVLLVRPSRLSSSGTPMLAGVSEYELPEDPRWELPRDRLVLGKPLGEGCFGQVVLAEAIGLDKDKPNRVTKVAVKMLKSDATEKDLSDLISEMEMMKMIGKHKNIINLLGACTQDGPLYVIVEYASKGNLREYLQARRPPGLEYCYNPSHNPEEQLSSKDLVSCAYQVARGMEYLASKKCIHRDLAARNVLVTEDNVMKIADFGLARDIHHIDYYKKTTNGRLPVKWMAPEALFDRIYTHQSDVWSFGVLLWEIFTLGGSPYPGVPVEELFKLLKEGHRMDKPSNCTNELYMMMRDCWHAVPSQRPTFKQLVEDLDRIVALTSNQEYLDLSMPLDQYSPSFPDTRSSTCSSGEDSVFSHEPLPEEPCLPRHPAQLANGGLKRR
T1 sequence (P21802 22-821): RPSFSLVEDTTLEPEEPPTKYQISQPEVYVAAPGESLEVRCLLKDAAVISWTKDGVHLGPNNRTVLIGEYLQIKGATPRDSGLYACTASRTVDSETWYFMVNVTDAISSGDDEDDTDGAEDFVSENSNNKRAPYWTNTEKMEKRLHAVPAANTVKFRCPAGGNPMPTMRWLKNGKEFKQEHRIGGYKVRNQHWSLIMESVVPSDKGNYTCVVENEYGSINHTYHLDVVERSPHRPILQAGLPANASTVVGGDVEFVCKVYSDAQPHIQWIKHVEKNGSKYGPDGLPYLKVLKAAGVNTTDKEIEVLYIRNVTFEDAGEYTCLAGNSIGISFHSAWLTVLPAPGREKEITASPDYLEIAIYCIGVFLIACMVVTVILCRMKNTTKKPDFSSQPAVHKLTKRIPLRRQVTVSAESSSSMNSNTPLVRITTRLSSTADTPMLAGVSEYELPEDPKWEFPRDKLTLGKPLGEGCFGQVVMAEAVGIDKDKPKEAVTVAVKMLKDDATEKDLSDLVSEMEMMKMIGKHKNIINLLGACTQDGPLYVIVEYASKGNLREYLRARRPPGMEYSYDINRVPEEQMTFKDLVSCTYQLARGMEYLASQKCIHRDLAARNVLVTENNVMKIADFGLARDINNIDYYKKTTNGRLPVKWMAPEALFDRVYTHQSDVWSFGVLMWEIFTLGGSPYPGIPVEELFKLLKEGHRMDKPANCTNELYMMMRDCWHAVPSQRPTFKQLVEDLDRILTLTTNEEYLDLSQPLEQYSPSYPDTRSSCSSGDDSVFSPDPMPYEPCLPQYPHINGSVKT

B1: bovine derived acidic fibroblast growth factor (ligand, UniProt P03968 16-155, looked up)
chain: FNLPLGNYKKPKLLYCSNGGYFLRILPDGTVDGTKDRSDQHIQLQLCAESIGEVYIKSTETGQFLAMDTDGLLYGSQTPNEECLFLERLEENHYNTYISKKHAEKHWFVGLKKNGRSKLGPRTHFGQKAILFLPLPVSSD
modifications: radioiodinated (125I) by Enzymobeads where used as labelled ligand
notes: Purified from a bovine source; also called aFGF; acidic FGF
Take B1: the figures for the Kd in assay [1], in assay [3] and in assay [4] were 0.04 to 0.1 nM, 0.024 nM and 0.047 nM, respectively. The “background counts with 100 fold molar excess of either ligand, % of total cpm” value in assay [2] and in assay [5] was less than 10% each time.

B2: human recombinant kFGF (ligand, UniProt P08620 31-206, looked up)
chain: APTAPNGTLEAELERRWESLVALSLARLPVAAQPKEAAVQSGAGDYLLGIKRLRRLYCNVGIGFHLQALPDGRIGGAHADTRDSLLELSPVERGVVSIFGVASRFFVAMSSKGKLYGSPFFTDECTFKEILLPNNYNAYESYKYPGMFIALSKNGKTKKGNRVSPTMKVTHFLPRL
modifications: radioiodinated (125I) by Enzymobeads
notes: also called hst/kFGF
In the case of B2, the dissociation constant (Kd) in assay [6] is 0.08 nM; in assay [8], 0.32 nM. Also, in assay [7], the “fold less avidity than bFGF” value stood at 4 fold.
